# In patent publication US5385885A, “Inhibition of smooth muscle cell proliferation by antistasin and tick anticoagulant peptide” (priority 1991, dated 1995):
# B1: protein S: human protein S, coagulation cascade factor (Enzyme Res. Labs) (protein, UniProt P07225 42-676, looked up)
# Vitamin K-dependent protein S: ANSLLEETKQGNLERECIEELCNKEEAREVFENDPETDYFYPKYLVCLRSFQTGLFTAARQSTNAYPDLRSCVNAIPDQCSPLPCNEDGYMSCKDGKASFTCTCKPGWQGEKCEFDINECKDPSNINGGCSQICDNTPGSYHCSCKNGFVMLSNKKDCKDVDECSLKPSICGTAVCKNIPGDFECECPEGYRYNLKSKSCEDIDECSENMCAQLCVNYPGGYTCYCDGKKGFKLAQDQKSCEVVSVCLPLNLDTKYELLYLAEQFAGVVLYLKFRLPEISRFSAEFDFRTYDSEGVILYAESIDHSAWLLIALRGGKIEVQLKNEHTSKITTGGDVINNGLWNMVSVEELEHSISIKIAKEAVMDINKPGPLFKPENGLLETKVYFAGFPRKVESELIKPINPRLDGCIRSWNLMKQGASGIKEIIQEKQNKHCLVTVEKGSYYPGSGIAQFHIDYNNVSSAEGWHVNVTLNIRPSTGTGVMLALVSGNNTVPFAVSLVDSTSEKSQDILLSVENTVIYRIQALSLCSDQQSHLEFRVNRNNLELSTPLKIETISHEDLQRQLAVLDKAMKAKVATYLGGLPDVPFSATPVNAFYNGCMEVNINGVQLDLDEAISKHNDIRAHSCPSVWKKTKNS
# B2: antistasin (protein, UniProt P15358 18-136, looked up)
# Antistasin: QGPFGPGCEEAGCPEGSACNIITDRCTCSGVRCRMHCPHGFQRSRYGCEFCKCRLEPMKATCDISECPEGMMCSRLTNKCDCKIDINCRKTCPNGLKRDKLGCEYCECRPKRKLIPRLS
# notes: 119-amino acid protein isolated from the salivary glands of the Mexican leech Haementeria officinalis
# B3: platelet derived growth factor BB: recombinant platelet-derived growth factor-BB, a good mitogen for smooth muscle cells (protein, UniProt P01127 82-190, looked up)
# Platelet-derived growth …: SLGSLTIAEPAMIAECKTRTEVFEISRRLIDRTNANFLVWPPCVEVQRCSGCCNNRNVQCRPTQVQLRPVQVRKIEIVRKKPIFKKATVTLEDHLACKCETVAAARPVT
# modifications: homodimer
# notes: recombinant platelet-derived growth factor-BB, a good mitogen for smooth muscle cells
# B4: Factor IX: bovine coagulation factor IX (protein, UniProt P00741 26-462, looked up)
# Coagulation factor IX: AECTVFLDRENATKILHRPKRYNSGKLEEFVRGNLERECKEEKCSFEEAREVFENTEKTTEFWKQYVDGDQCESNPCLNGGMCKDDINSYECWCQAGFEGTNCELDATCSIKNGRCKQFCKRDTDNKVVCSCTDGYRLAEDQKSCEPAVPFPCGRVSVSHISKKLTRAETIFSNTNYENSSEAEIIWDNVTQSNQSFDEFSRVVGGEDAERGQFPWQVLLHGEIAAFCGGSIVNEKWVVTAAHCIKPGVKITVVAGEHNTEKPEPTEQKRNVIRAIPYHSYNASINKYSHDIALLELDEPLELNSYVTPICIADRDYTNIFLKFGYGYVSGWGKVFNRGRSASILQYLKVPLVDRATCLRSTKFSIYSHMFCAGYHEGGKDSCQGDSGGPHVTEVEGTSFLTGIISWGEECAMKGKYGIYTKVSRYVNWIKEKTKLT
# Tests used:
# [1] = system: rat aortic smooth muscle cells; assay: Comparison of 3H-thymidine incorporation and cell proliferation in rat aortic smooth muscle cell cultures; format: cell-based; details: 10 mM factor, 36 hours treatment
# Experimental: Rat smooth muscle cells were incubated with different blood coagulation factors to determine ^3 H-thymidine incorporation and effect cell number. […] At the end of the incubation, half of the groups were pulsed with ^3 H-thymidine for two hours while their identically treated counterparts were dissociated with trypsin and the cells (smooth muscle cells on the basis of a reddish-brown staining pattern with Masson's trichome) were counted. Although there was not a direct correspondence between the per cent increase in thymidine incorporation and cell number, the increase in DNA synthesis correlated well with an increase in cell number. bovine factor Xa increased cell proliferation in a dose dependent manner. 10 mM Protein S induced greater cell proliferation than 50 mM bovine factor Xa.
# [2] = system: rat aortic smooth muscle cells; assay: Mitogenic activity of blood coagulation factors on smooth muscle cells (3H-thymidine incorporation); format: cell-based, Wistar rats; details: 24 h
# Experimental: Primary smooth muscle cell cultures were prepared from the thoracic and abdominal aorta of 2-3 month old Wistar rats essentially using the procedure of Reilly, C. […] After removing as much fat and adherent adventitia as possible with scissors and forceps, the tissue was finely minced, enzymatically dissociated with successive 37° C. incubations in HBSS containing collagenase (Sigma, 0.5 mg/ml for 15 min.), then elastase (Sigma, 0.125 mg/ml for 30 min.) and again collagenase (60 min.). […] Cells were grown in Dulbecco's Minimal Essential Medium (DMEM) containing 10% fetal bovine serum (FBS) with antibiotics. […] Using a monoclonal antibody to alpha actin (Sigma Chemical Company, St. Louis, Mo.), about 60-80% (preparation dependent) of these confluent cells stained positive for this smooth muscle cell marker. After 10 days in culture, the cells were dissociated with trypsinethylene diamine tetraacetate (EDTA), split 1:10 and subcultured in the above medium. At confluence the cells were transferred to DMEM containing 0.1 % FBS for a 24 hour period before using them for assay. All smooth muscle cells used in these studies were from passages 1-4.
# The prepared rat smooth muscle cells were seeded in Falcon 24 multiwell plates (10^5 cells/well) and cultured at 37° C., in a 5% CO2 atmosphere in 1 ml DMEM containing 10% FBS. […] At the end of the incubation, the cultures were washed twice with DMEM and pulsed for two hours in ^3 H-thymidine (1 μCi/ml) in DMEM containing 0.1% BSA. The cells were washed twice with cold phosphate buffered saline (PBS), treated twice with 5% trichloroacetic acid (TCA) for 5 min., dissolved with 0.25N NaOH (0.4 ml) incubated at 37° C. for 60 min., mixed with 5 ml Ecolume (ICN Biomedicals, Costa Mesa, Calif.), and their radioactivity determined in a scintillation counter. All assays were in triplicate. Error bars represent the standard error of the mean (S.E.M. with n=6 or more experiments). Smooth muscle cell mitogenic activity produced by exogenous agents is expressed as % relative mitogenic activity which is defined as: [formula] […]
# 3T3 cells = assay: Direct antistasin treatment of 3T3 cells, proliferation; format: cell-based
# [3] = system: human venous endothelial cells; assay: Release of mitogens from endothelial cells stimulated with factor Xa; conditioned media tested for mitogenic activity on 3T3 cells; format: cell-based; details: for Mitogenic units of EC conditioned media: 1 unit = activity induced by 2 ng/ml PDGF, FXa 1 nM, ATS 5 nM, PDGF 2 ng/ml, 16 h
# Experimental: Confluent primary cultures or subcultures (passages 1 and 2) of human venous endothelial cells (EC) were cultured in serum-free Dulbecco's Minimal Essential Medium (DMEM)+0.1% bovine serum albumin (BSA) in the presence of human or bovine factor Xa(1 nM) (Sigma Chemical Co., St. Louis, Mo.), antistasin (ATS) (0.5-5.0 nM), or both. Control cultures were untreated or received 2 ng/ml platelet-derived growth factor (PDGF) (Sigma Chemical Co., St. Louis, Mo.). After 16 hours incubation at 37° C., the conditioned media (CM) from the test and control cell cultures were collected and tested for mitogenic activity (MIT) using confluent NIH 3T3 cells (CCL 163, American Type Culture Collection, Rockville, Md.).
# Primary cultures of EC derived from umbilical cord veins were prepared and grown according to a protocol provided to by Dr. Gwendolyn Stewart (Temple University Thrombosis Center, Phila., Pa.). After washing the lumen of the vein twice with DMEM, EC were dissociated with a solution containing 0.05% trypsin and 0.1% collagenase. Thirty minutes later, the venous content and the perfused DMEM (35 ml) was collected into a fifty ml centrifuge tube containing 3.5 ml of bovine serum and the mixture spun at 900 rpm for 10 minutes. The supernate was discarded and the cell pellet resuspended in 3.0 ml DMEM containing 20% fetal bovine serum (FBS) (heat inactivated at 56° C. for 30 minutes), 90 μg heparin per ml, 5 μg fibronectin per ml, and 60 μg endothelial growth factor per ml (cDMEM), and seeded into 35 mm tissue culture dishes. After 24 hours of incubation at 37 °C, 5% CO2, the culture was washed 3-4 times with DMEM and incubated 2-4 days until the cells were confluent. The monolayers were washed with phosphate buffered saline (PBS) and cultured in DMEM with 0.1% BSA in the presence and absence of 1 nM factor Xa, 5 nM antistasin, or a mixture of both. As positive and negative controls, separated monolayers were incubated with the medium plus 2 ng/ml PDGF or with the medium alone. After 16 hours of incubation at 37° C., conditioned media (CM) were collected, centrifuged at 4000×g for 10 minutes, and the supernate was collected and stored at 4° C. until use. The mitogenic activity of the CM was tested by measuring the incorporation of [^3 H] thymidine into cultures of Balb 3T3 cells. For this purpose, wells were seeded with 2×10^4 3T3 cells suspended in 1 ml DMEM with 10% FBS. Once confluent (5-7 days of culture), CM were added and cells incubated for 18 hours at 37° C. after which cultures were washed with warm DMEM, tritiated thymidine added (1 μCi/ml) and cells incubated for 4 hours at 37° C. After removing the medium, the culture was washed twice with cold 5% trichloroacetic acid (TCA), and lysed with 0.8 ml 0.25M NaOH. The lysate was transferred to vials with scintillation fluid and radioactivity monitored in a beta radiation counter.
# One unit of mitogenic activity is defined as the mitogenic activity induced by 2 ng/ml PDGF. Each assay was performed in triplicate and the standard deviation was less than 10%.
# smooth muscle cells [4] = assay: Effect of antistasin and tick anticoagulant peptide on factor Xa induced mitogenesis of smooth muscle cells; format: cell-based, rat; details: FIG. 2
# Experimental: Primary smooth muscle cell cultures were prepared from the thoracic and abdominal aorta of 2-3 month old Wistar rats essentially using the procedure of Reilly, C. F. (1990) J. Cell Physiol. 142,342 (1990). After removing as much fat and adherent adventitia as possible with scissors and forceps, the tissue was finely minced, enzymatically dissociated with successive 37° C. incubations in HBSS containing collagenase (Sigma, 0.5 mg/ml for 15 min.), then elastase (Sigma, 0.125 mg/ml for 30 min.) and again collagenase (60 min.). […] Cells were grown in Dulbecco's Minimal Essential Medium (DMEM) containing 10% fetal bovine serum (FBS) with antibiotics. […] Using a monoclonal antibody to alpha actin (Sigma Chemical Company, St. Louis, Mo.), about 60-80% (preparation dependent) of these confluent cells stained positive for this smooth muscle cell marker. After 10 days in culture, the cells were dissociated with trypsinethylene diamine tetraacetate (EDTA), split 1:10 and subcultured in the above medium. At confluence the cells were transferred to DMEM containing 0.1 % FBS for a 24 hour period before using them for assay. […]
# (§1) The prepared rat smooth muscle cells were seeded in Falcon 24 multiwell plates (10^5 cells/well) and cultured at 37° C., in a 5% CO2 atmosphere in 1 ml DMEM containing 10% FBS. […] The cells were washed twice with cold phosphate buffered saline (PBS), treated twice with 5% trichloroacetic acid (TCA) for 5 min., dissolved with 0.25N NaOH (0.4 ml) incubated at 37° C. for 60 min., mixed with 5 ml Ecolume (ICN Biomedicals, Costa Mesa, Calif.), and their radioactivity determined in a scintillation counter. […] Smooth muscle cell mitogenic activity produced by exogenous agents is expressed as % relative mitogenic activity which is defined as: [formula] […]
# The effects of antistasin and tick anticoagulant peptide on factor Xa induced mitogenesis of smooth muscle cells were tested using the method shown in Example 4. […] At the end of the 24 hour incubation, ^3 H-thymidine incorporation into DNA was monitored and smooth muscle cell mitogenic activity was assessed as described in Example 4.
# smooth muscle cells [5] = assay: Effect of factor Xa inhibitors on human protein S and bovine factor X induced smooth muscle cell mitogenesis; format: cell-based, rat; details: FIG. 3
# Experimental: Primary smooth muscle cell cultures were prepared from the thoracic and abdominal aorta of 2-3 month old Wistar rats essentially using the procedure of Reilly, C. F. (1990) J. Cell Physiol. 142,342 (1990). After removing as much fat and adherent adventitia as possible with scissors and forceps, the tissue was finely minced, enzymatically dissociated with successive 37° C. incubations in HBSS containing collagenase (Sigma, 0.5 mg/ml for 15 min.), then elastase (Sigma, 0.125 mg/ml for 30 min.) and again collagenase (60 min.). […] Cells were grown in Dulbecco's Minimal Essential Medium (DMEM) containing 10% fetal bovine serum (FBS) with antibiotics. […]
# as §1
# [6] = FIG. 1, 10 nM coagulation factor
molecule,measurement,setting,value
B1,SMC Number,[1],6.5 × 10^5
same,CPM Incorporated (3H-thymidine),[1]; 2 h pulse,"30,074 ± 2,837 CPM"
same,% relative mitogenic activity above control,[2]; [6],about 122%
B2,Effect on proliferation of 3T3 cells,3T3 cells,no significant effect
same,Mitogenic units of EC conditioned media,[3]; EXP 1,0.74 mitogenic units
same,Mitogenic units of EC conditioned media,[3]; EXP 2,0.42 mitogenic units
same,Mitogenic units of EC conditioned media,[3]; EXP 3,0.70 mitogenic units
same,Mitogenic units of EC conditioned media,[3]; EXP 4,0.36 mitogenic units
same,Release of mitogens from endothelial cells,[3]; antistasin 0.5-10 nM,blocks the release of mitogens
same,Relative mitogenic activity above control,smooth muscle cells [4]; 10 nM fXa and 5 nM antistasin,about 23%
same,Relative mitogenic activity above control,smooth muscle cells [4]; 10 nM fXa and 10-20 nM antistasin,about 2%
same,Relative mitogenic activity above control,smooth muscle cells [4]; 10 nM fXa with 40-50 nM antistasin,near zero
same,Inhibition of relative mitogenic activity of bovine factor X,smooth muscle cells [5]; 10 nM bovine factor X with 50 nM antistasin,not significantly inhibited
same,Inhibition of relative mitogenic activity of protein S,smooth muscle cells [5]; protein S with 50 nM antistasin,abolished
B3,% relative mitogenic activity above control,"[2]; FIG. 1, 0.1 nM PDGF-BB",about 63%
B4,% relative mitogenic activity above control,[2]; [6],only weakly mitogenic
